Laboratory results taken from patent publication US20120172293A1 (Takeda / Millennium, published 2012).
Starred links: 1 amine or outer side, 2 acyl side, 3 side chain; linkers in the order of their positions; H or OH if unused. Non-standard residues stand in square brackets, D forms with d. No end group written: not given here. Azetidine3carboxylic = O=C(C1CN([*:1])C1)[*:2]; Dap(CONH2) = NC(=O)NC[C@H](N)C(=O)O; 3Pal = N[C@@H](Cc1cccnc1)C(=O)O; 4Pal = N[C@@H](Cc1ccncc1)C(=O)O; dHyp = O=C(O)[C@H]1C[C@H](O)CN1; Cha = N[C@@H](CC1CCCCC1)C(=O)O; NMeS = CN[C@@H](CO)C(=O)O; dPip = O=C(O)[C@H]1CCCCN1; hSer = N[C@@H](CCO)C(=O)O; NMeA = CN[C@@H](C)C(=O)O; Nle = CCCC[C@H](N)C(=O)O; Orn = NCCC[C@H](N)C(=O)O; dNMeA = CN[C@H](C)C(=O)O; Aib = CC(C)(N)C(=O)O; Sar = CNCC(=O)O

B1: Ac-[Glu23, D-Pic(2)24, Cha27,28,36, Aib31]-PYY(23-36) (peptide)
peptide: Ac-E[dPip]RH[Cha][Cha]NL[Aib]TRQR[Cha]-NH2
SMILES: CC(=O)N[C@@H](CCC(=O)O)C(=O)N1CCCC[C@@H]1C(=O)N[C@@H](CCCNC(=N)N)C(=O)N[C@@H](Cc1c[nH]cn1)C(=O)N[C@@H](CC1CCCCC1)C(=O)N[C@@H](CC1CCCCC1)C(=O)N[C@@H](CC(N)=O)C(=O)N[C@@H](CC(C)C)C(=O)NC(C)(C)C(=O)N[C@H](C(=O)N[C@@H](CCCNC(=N)N)C(=O)N[C@@H](CCC(N)=O)C(=O)N[C@@H](CCCNC(=N)N)C(=O)N[C@@H](CC1CCCCC1)C(N)=O)[C@@H](C)O
B2: Ac-[D-Pic(2)24, Cha27,28,36, Aib31]-PYY(23-36) (peptide)
peptide: Ac-S[dPip]RH[Cha][Cha]NL[Aib]TRQR[Cha]-NH2
SMILES: CC(=O)N[C@@H](CO)C(=O)N1CCCC[C@@H]1C(=O)N[C@@H](CCCNC(=N)N)C(=O)N[C@@H](Cc1c[nH]cn1)C(=O)N[C@@H](CC1CCCCC1)C(=O)N[C@@H](CC1CCCCC1)C(=O)N[C@@H](CC(N)=O)C(=O)N[C@@H](CC(C)C)C(=O)NC(C)(C)C(=O)N[C@H](C(=O)N[C@@H](CCCNC(=N)N)C(=O)N[C@@H](CCC(N)=O)C(=O)N[C@@H](CCCNC(=N)N)C(=O)N[C@@H](CC1CCCCC1)C(N)=O)[C@@H](C)O
B3: Ac-[MeSer23, D-Pro24, Cha27,28,36, Aib31]-PYY(22-36) (peptide)
peptide: Ac-A[NMeS][dP]RH[Cha][Cha]NL[Aib]TRQR[Cha]-NH2
SMILES: CC(=O)N[C@@H](C)C(=O)N(C)[C@@H](CO)C(=O)N1CCC[C@@H]1C(=O)N[C@@H](CCCNC(=N)N)C(=O)N[C@@H](Cc1c[nH]cn1)C(=O)N[C@@H](CC1CCCCC1)C(=O)N[C@@H](CC1CCCCC1)C(=O)N[C@@H](CC(N)=O)C(=O)N[C@@H](CC(C)C)C(=O)NC(C)(C)C(=O)N[C@H](C(=O)N[C@@H](CCCNC(=N)N)C(=O)N[C@@H](CCC(N)=O)C(=O)N[C@@H](CCCNC(=N)N)C(=O)N[C@@H](CC1CCCCC1)C(N)=O)[C@@H](C)O
B4: Ac-[D-Pro24, Nle25, Pya(4)26, Cha27,28,36, Aib31]-PYY(23-36) (peptide)
peptide: Ac-S[dP][Nle][4Pal][Cha][Cha]NL[Aib]TRQR[Cha]-NH2
SMILES: CCCC[C@H](NC(=O)[C@H]1CCCN1C(=O)[C@H](CO)NC(C)=O)C(=O)N[C@@H](Cc1ccncc1)C(=O)N[C@@H](CC1CCCCC1)C(=O)N[C@@H](CC1CCCCC1)C(=O)N[C@@H](CC(N)=O)C(=O)N[C@@H](CC(C)C)C(=O)NC(C)(C)C(=O)N[C@H](C(=O)N[C@@H](CCCNC(=N)N)C(=O)N[C@@H](CCC(N)=O)C(=O)N[C@@H](CCCNC(=N)N)C(=O)N[C@@H](CC1CCCCC1)C(N)=O)[C@@H](C)O
B5: [MeAla22, D-Pro24, Cha27,28,36, Aib31]-PYY(22-36) (peptide)
peptide: [NMeA]S[dP]RH[Cha][Cha]NL[Aib]TRQR[Cha]-NH2
modifications: N-terminus assumed
SMILES: CN[C@@H](C)C(=O)N[C@@H](CO)C(=O)N1CCC[C@@H]1C(=O)N[C@@H](CCCNC(=N)N)C(=O)N[C@@H](Cc1c[nH]cn1)C(=O)N[C@@H](CC1CCCCC1)C(=O)N[C@@H](CC1CCCCC1)C(=O)N[C@@H](CC(N)=O)C(=O)N[C@@H](CC(C)C)C(=O)NC(C)(C)C(=O)N[C@H](C(=O)N[C@@H](CCCNC(=N)N)C(=O)N[C@@H](CCC(N)=O)C(=O)N[C@@H](CCCNC(=N)N)C(=O)N[C@@H](CC1CCCCC1)C(N)=O)[C@@H](C)O
B6: Ac-[D-Pro24, Orn26, Cha27,28,36, Aib31]-PYY(23-36) (peptide)
peptide: Ac-S[dP]R[Orn][Cha][Cha]NL[Aib]TRQR[Cha]-NH2
SMILES: CC(=O)N[C@@H](CO)C(=O)N1CCC[C@@H]1C(=O)N[C@@H](CCCNC(=N)N)C(=O)N[C@@H](CCCN)C(=O)N[C@@H](CC1CCCCC1)C(=O)N[C@@H](CC1CCCCC1)C(=O)N[C@@H](CC(N)=O)C(=O)N[C@@H](CC(C)C)C(=O)NC(C)(C)C(=O)N[C@H](C(=O)N[C@@H](CCCNC(=N)N)C(=O)N[C@@H](CCC(N)=O)C(=O)N[C@@H](CCCNC(=N)N)C(=O)N[C@@H](CC1CCCCC1)C(N)=O)[C@@H](C)O
B7: Ac-[Aze(3)24, Cha27,28,36, Aib31]-PYY(23-36) (peptide)
peptide: Ac-S[Azetidine3carboxylic]RH[Cha][Cha]NL[Aib]TRQR[Cha]-NH2
SMILES: CC(=O)N[C@@H](CO)C(=O)N1CC(C(=O)N[C@@H](CCCNC(=N)N)C(=O)N[C@@H](Cc2c[nH]cn2)C(=O)N[C@@H](CC2CCCCC2)C(=O)N[C@@H](CC2CCCCC2)C(=O)N[C@@H](CC(N)=O)C(=O)N[C@@H](CC(C)C)C(=O)NC(C)(C)C(=O)N[C@H](C(=O)N[C@@H](CCCNC(=N)N)C(=O)N[C@@H](CCC(N)=O)C(=O)N[C@@H](CCCNC(=N)N)C(=O)N[C@@H](CC2CCCCC2)C(N)=O)[C@@H](C)O)C1
B8: Ac-[Glu23, D-Pro24, Pya(4)26, Cha27,28,36, Aib31]-PYY(23-36) (peptide)
peptide: Ac-E[dP]R[4Pal][Cha][Cha]NL[Aib]TRQR[Cha]-NH2
SMILES: CC(=O)N[C@@H](CCC(=O)O)C(=O)N1CCC[C@@H]1C(=O)N[C@@H](CCCNC(=N)N)C(=O)N[C@@H](Cc1ccncc1)C(=O)N[C@@H](CC1CCCCC1)C(=O)N[C@@H](CC1CCCCC1)C(=O)N[C@@H](CC(N)=O)C(=O)N[C@@H](CC(C)C)C(=O)NC(C)(C)C(=O)N[C@H](C(=O)N[C@@H](CCCNC(=N)N)C(=O)N[C@@H](CCC(N)=O)C(=O)N[C@@H](CCCNC(=N)N)C(=O)N[C@@H](CC1CCCCC1)C(N)=O)[C@@H](C)O
B9: Ac-[D-Pro24, Hse26, Cha27,36, Aib28,31]-PYY(23-36) (peptide)
peptide: Ac-S[dP]R[hSer][Cha][Aib]NL[Aib]TRQR[Cha]-NH2
SMILES: CC(=O)N[C@@H](CO)C(=O)N1CCC[C@@H]1C(=O)N[C@@H](CCCNC(=N)N)C(=O)N[C@@H](CCO)C(=O)N[C@@H](CC1CCCCC1)C(=O)NC(C)(C)C(=O)N[C@@H](CC(N)=O)C(=O)N[C@@H](CC(C)C)C(=O)NC(C)(C)C(=O)N[C@H](C(=O)N[C@@H](CCCNC(=N)N)C(=O)N[C@@H](CCC(N)=O)C(=O)N[C@@H](CCCNC(=N)N)C(=O)N[C@@H](CC1CCCCC1)C(N)=O)[C@@H](C)O
B10: Ac-[D-Hyp24, Cha27,28,36, Aib31]-PYY(23-36) (peptide)
peptide: Ac-S[dHyp]RH[Cha][Cha]NL[Aib]TRQR[Cha]-NH2
SMILES: CC(=O)N[C@@H](CO)C(=O)N1C[C@@H](O)C[C@@H]1C(=O)N[C@@H](CCCNC(=N)N)C(=O)N[C@@H](Cc1c[nH]cn1)C(=O)N[C@@H](CC1CCCCC1)C(=O)N[C@@H](CC1CCCCC1)C(=O)N[C@@H](CC(N)=O)C(=O)N[C@@H](CC(C)C)C(=O)NC(C)(C)C(=O)N[C@H](C(=O)N[C@@H](CCCNC(=N)N)C(=O)N[C@@H](CCC(N)=O)C(=O)N[C@@H](CCCNC(=N)N)C(=O)N[C@@H](CC1CCCCC1)C(N)=O)[C@@H](C)O
B11: Ac-[D-Pro24, Alb26, Cha27,28,36, Aib31]-PYY(23-36) (peptide)
peptide: Ac-S[dP]R[Dap(CONH2)][Cha][Cha]NL[Aib]TRQR[Cha]-NH2
SMILES: CC(=O)N[C@@H](CO)C(=O)N1CCC[C@@H]1C(=O)N[C@@H](CCCNC(=N)N)C(=O)N[C@@H](CNC(N)=O)C(=O)N[C@@H](CC1CCCCC1)C(=O)N[C@@H](CC1CCCCC1)C(=O)N[C@@H](CC(N)=O)C(=O)N[C@@H](CC(C)C)C(=O)NC(C)(C)C(=O)N[C@H](C(=O)N[C@@H](CCCNC(=N)N)C(=O)N[C@@H](CCC(N)=O)C(=O)N[C@@H](CCCNC(=N)N)C(=O)N[C@@H](CC1CCCCC1)C(N)=O)[C@@H](C)O
B12: Ac-[D-Pro24, Pya(3)26, Cha27,28,36, Aib31]-PYY(23-36) (peptide)
peptide: Ac-S[dP]R[3Pal][Cha][Cha]NL[Aib]TRQR[Cha]-NH2
SMILES: CC(=O)N[C@@H](CO)C(=O)N1CCC[C@@H]1C(=O)N[C@@H](CCCNC(=N)N)C(=O)N[C@@H](Cc1cccnc1)C(=O)N[C@@H](CC1CCCCC1)C(=O)N[C@@H](CC1CCCCC1)C(=O)N[C@@H](CC(N)=O)C(=O)N[C@@H](CC(C)C)C(=O)NC(C)(C)C(=O)N[C@H](C(=O)N[C@@H](CCCNC(=N)N)C(=O)N[C@@H](CCC(N)=O)C(=O)N[C@@H](CCCNC(=N)N)C(=O)N[C@@H](CC1CCCCC1)C(N)=O)[C@@H](C)O
B13: Ac-[D-Ser23, Sar24, Cha27,28,36, Aib31]-PYY(23-36) (peptide)
peptide: Ac-[dS][Sar]RH[Cha][Cha]NL[Aib]TRQR[Cha]-NH2
SMILES: CC(=O)N[C@H](CO)C(=O)N(C)CC(=O)N[C@@H](CCCNC(=N)N)C(=O)N[C@@H](Cc1c[nH]cn1)C(=O)N[C@@H](CC1CCCCC1)C(=O)N[C@@H](CC1CCCCC1)C(=O)N[C@@H](CC(N)=O)C(=O)N[C@@H](CC(C)C)C(=O)NC(C)(C)C(=O)N[C@H](C(=O)N[C@@H](CCCNC(=N)N)C(=O)N[C@@H](CCC(N)=O)C(=O)N[C@@H](CCCNC(=N)N)C(=O)N[C@@H](CC1CCCCC1)C(N)=O)[C@@H](C)O
B14: Ac-[D-MeAla22, D-Pro24, Cha27,28,36, Aib31]-PYY(22-36) (peptide)
peptide: Ac-[dNMeA]S[dP]RH[Cha][Cha]NL[Aib]TRQR[Cha]-NH2
SMILES: CC(=O)N(C)[C@H](C)C(=O)N[C@@H](CO)C(=O)N1CCC[C@@H]1C(=O)N[C@@H](CCCNC(=N)N)C(=O)N[C@@H](Cc1c[nH]cn1)C(=O)N[C@@H](CC1CCCCC1)C(=O)N[C@@H](CC1CCCCC1)C(=O)N[C@@H](CC(N)=O)C(=O)N[C@@H](CC(C)C)C(=O)NC(C)(C)C(=O)N[C@H](C(=O)N[C@@H](CCCNC(=N)N)C(=O)N[C@@H](CCC(N)=O)C(=O)N[C@@H](CCCNC(=N)N)C(=O)N[C@@H](CC1CCCCC1)C(N)=O)[C@@H](C)O

molecular target: human Y2 receptor (human) (UniProt P49146); test: cell-based or functional assay
Sequence (P49146 whole entry): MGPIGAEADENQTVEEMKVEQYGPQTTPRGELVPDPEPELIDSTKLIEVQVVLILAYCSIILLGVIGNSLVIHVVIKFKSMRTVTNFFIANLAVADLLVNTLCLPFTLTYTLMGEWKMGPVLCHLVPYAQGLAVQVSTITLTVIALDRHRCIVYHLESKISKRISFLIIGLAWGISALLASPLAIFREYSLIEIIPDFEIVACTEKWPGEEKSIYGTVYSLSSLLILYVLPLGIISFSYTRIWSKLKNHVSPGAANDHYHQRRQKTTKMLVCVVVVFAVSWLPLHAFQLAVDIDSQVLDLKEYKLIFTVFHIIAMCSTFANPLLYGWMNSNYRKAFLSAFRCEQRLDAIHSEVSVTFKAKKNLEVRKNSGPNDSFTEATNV

| Binder | GBA EC50 Ratio (vs PYY(3-36)), [35S]GTPγS |
| --- | --- |
| B1 | 10 |
| B2 | 5.8 |
| B3 | 7.8 |
| B4 | 2.6 |
| B5 | 0.72 |
| B6 | 2.2 |
| B7 | 4.7 |
| B8 | 1.3 |
| B9 | 5.4 |
| B10 | 0.9 |
| B11 | 2.2 |
| B12 | 1.2 |
| B13 | 5.3 |
| B14 | 6.1 |

molecular target: human Y2 receptor (human) (UniProt P49146); test: RBA: [125I]-PYY displacement, hY2R/CHO membranes

| Binder | IC50 Ratio (vs PYY(3-36)) |
| --- | --- |
| B1 | 17 |
| B2 | 9.9 |
| B3 | 12 |
| B4 | 20 |
| B5 | 0.6 |
| B6 | 4.2 |
| B7 | 11 |
| B8 | 4.6 |
| B9 | 11 |
| B10 | 1.1 |
| B11 | 12 |
| B12 | 3.3 |
| B13 | 6.6 |
| B14 | 3.5 |
